Source: paper PMC11619453

Target: ORF59HA full-length (KSHV DNA polymerase processivity factor ORF59 with an in-frame HA tag, from iSLK.BAC16-ORF59HA) (Kaposi's sarcoma-associated herpesvirus (KSHV, human herpesvirus 8), BAC16)
Sequence (F5HID2 whole entry): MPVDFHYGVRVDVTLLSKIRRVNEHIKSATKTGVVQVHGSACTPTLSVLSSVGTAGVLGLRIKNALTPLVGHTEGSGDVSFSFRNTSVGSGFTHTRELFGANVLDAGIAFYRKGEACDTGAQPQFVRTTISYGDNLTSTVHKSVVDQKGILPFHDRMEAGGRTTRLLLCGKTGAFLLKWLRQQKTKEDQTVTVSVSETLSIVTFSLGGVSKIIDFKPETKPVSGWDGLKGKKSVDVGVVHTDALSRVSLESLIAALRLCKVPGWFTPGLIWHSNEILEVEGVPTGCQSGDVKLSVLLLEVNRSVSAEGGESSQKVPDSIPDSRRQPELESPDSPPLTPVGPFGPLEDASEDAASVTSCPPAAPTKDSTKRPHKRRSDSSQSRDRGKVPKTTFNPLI

B1: ORF57 (KSHV mRNA transcript accumulation protein, MTA) (natural protein)
chain: MVQAMIDMDIMKGILEDSVSSSEFDESRDDETDAPTLEDEQLSEPAEPPADERIRGTQSAQGIPPPLGRIPKKSQGRSQLRSEIQFCSPLSRPRSPSPVNRYGKKIKFGTAGQNTRPPPEKRPRRRPRDRLQYGRTTRGGQCRAAPKRATRRPQVNCQRQDDDVRQGVSDAVKKLRLPASMIIDGESPRFDDSIIPRHHGACFNVFIPAPPSHVPEVFTDRDITALIRAGGKDDELINKKISAKKIDHLHRQMLSFVTSRHNQAYWVSCRRETAAAGGLQTLGAFVEEQMTWAQTVVRHGGWFDEKDIDIILDTAIFVCNAFVTRFRLLHLSCVFDKQSELALIKQVAYLVAMGNRLVEACNLLGEVKLNFRGGLLLAFVLTIPGMQSRRSISARGQELFRTLLEYYRPGDVMGLLNVIVMEHHSLCRNSECAAATRAAMGSAKFNKGLFFYPLS
B1 gave a viral DNA accumulation (qPCR of ORF26, 72 hpi) in 59HA-WT iSLK cells transfected with 30–100DsRed, against control cells of 5 fold.
